Earlier results in patent publication US20080070838A1, “Growth Factor Treatment for Asthma” (University of Southampton, priority 2004, published 2008).

Test system: airway fibrosis
Settings: mouse, in vivo

TGFα: structural homologue of EGF and a ligand for the EGF receptor
airway fibrosis: marked airway fibrosis
